Reference: publication doi:10.1101/2021.10.29.466147 (bioRxiv, 2021)
One block for each binder: values may come before it.

Assays:
[1] = molecular target: T1, Ycs4, HEAT-repeat subunit I of S. cerevisiae condensin (S. cerevisiae, UniProt Q06156 1-1176); assay: cryo-EM structure
T1 sequence: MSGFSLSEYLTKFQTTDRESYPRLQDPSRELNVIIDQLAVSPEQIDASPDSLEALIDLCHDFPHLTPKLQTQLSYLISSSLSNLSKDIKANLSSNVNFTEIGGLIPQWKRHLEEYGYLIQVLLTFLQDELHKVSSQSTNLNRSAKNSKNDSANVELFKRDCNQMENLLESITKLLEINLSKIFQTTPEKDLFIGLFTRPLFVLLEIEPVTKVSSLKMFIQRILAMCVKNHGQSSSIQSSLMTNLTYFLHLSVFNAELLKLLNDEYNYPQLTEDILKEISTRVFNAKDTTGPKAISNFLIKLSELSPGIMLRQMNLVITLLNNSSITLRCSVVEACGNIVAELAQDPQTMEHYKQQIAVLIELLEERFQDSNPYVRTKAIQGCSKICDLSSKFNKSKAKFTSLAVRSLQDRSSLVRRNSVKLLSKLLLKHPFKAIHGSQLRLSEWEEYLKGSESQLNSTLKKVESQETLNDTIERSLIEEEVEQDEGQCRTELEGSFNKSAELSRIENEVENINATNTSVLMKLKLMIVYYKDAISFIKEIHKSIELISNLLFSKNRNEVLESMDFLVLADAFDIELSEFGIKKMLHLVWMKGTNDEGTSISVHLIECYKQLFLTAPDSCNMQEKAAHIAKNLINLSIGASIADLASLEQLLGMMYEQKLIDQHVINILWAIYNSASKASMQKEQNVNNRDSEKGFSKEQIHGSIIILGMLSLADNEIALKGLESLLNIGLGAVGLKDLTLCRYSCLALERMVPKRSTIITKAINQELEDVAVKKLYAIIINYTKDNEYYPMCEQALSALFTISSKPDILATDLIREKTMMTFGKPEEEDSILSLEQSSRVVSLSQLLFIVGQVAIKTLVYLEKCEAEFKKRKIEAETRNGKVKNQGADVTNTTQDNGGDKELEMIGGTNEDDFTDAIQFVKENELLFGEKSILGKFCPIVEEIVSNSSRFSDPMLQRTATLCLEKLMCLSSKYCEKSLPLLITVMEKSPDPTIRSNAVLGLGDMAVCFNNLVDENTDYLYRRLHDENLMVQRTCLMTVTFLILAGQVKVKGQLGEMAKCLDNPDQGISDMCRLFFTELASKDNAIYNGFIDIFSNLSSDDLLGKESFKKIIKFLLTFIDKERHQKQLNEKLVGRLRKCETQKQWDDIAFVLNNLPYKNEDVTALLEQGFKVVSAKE

[2] = molecular target: T2, Ycg1, HEAT-repeat subunit II of S. cerevisiae condensin (S. cerevisiae, UniProt Q06680 1-1035); assay: co-purification
T2 sequence (looked up): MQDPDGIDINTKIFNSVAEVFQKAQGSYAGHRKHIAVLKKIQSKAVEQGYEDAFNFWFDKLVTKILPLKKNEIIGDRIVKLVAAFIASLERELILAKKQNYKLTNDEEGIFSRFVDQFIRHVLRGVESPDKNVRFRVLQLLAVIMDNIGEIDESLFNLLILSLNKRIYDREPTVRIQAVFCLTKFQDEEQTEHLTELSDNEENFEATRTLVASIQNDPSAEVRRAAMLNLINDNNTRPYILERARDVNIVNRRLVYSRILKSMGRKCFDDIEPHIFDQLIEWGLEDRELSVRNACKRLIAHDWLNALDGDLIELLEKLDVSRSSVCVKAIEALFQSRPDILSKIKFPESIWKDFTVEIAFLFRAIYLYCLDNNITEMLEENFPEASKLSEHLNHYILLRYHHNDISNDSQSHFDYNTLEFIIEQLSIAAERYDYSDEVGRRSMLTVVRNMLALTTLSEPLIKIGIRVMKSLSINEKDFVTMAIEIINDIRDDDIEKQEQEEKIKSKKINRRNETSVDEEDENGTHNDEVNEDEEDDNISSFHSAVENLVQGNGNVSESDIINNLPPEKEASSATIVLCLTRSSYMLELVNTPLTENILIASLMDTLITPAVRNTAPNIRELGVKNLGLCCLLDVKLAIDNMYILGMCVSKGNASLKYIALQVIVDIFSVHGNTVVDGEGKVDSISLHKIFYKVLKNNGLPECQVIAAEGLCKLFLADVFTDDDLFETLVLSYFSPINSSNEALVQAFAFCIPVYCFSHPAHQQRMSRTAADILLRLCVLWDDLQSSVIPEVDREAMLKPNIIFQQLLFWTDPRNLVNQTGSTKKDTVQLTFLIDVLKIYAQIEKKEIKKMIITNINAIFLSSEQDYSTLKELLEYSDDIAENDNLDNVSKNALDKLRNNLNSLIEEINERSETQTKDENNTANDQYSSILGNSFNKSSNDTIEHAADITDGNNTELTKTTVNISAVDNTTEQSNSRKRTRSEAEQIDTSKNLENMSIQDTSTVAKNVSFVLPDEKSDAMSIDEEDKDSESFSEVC

[3] = molecular target: condensin holo complex Smc2-Smc4-Brn1-Ycs4-Ycg1, Walker B EQ mutant (Saccharomyces cerevisiae, UniProt P38989;Q12267;P38170;Q06156;Q06680 1-1170;1-1418;1-754;1-1176;1-1035, E1113Q;E1352Q); assay: cryo-EM
condensin holo complex Smc2-Smc4-Brn1-Ycs4-Ycg1, Walker B EQ mutant, sequence (P38989 whole entry E1113Q, chain 1 of 2): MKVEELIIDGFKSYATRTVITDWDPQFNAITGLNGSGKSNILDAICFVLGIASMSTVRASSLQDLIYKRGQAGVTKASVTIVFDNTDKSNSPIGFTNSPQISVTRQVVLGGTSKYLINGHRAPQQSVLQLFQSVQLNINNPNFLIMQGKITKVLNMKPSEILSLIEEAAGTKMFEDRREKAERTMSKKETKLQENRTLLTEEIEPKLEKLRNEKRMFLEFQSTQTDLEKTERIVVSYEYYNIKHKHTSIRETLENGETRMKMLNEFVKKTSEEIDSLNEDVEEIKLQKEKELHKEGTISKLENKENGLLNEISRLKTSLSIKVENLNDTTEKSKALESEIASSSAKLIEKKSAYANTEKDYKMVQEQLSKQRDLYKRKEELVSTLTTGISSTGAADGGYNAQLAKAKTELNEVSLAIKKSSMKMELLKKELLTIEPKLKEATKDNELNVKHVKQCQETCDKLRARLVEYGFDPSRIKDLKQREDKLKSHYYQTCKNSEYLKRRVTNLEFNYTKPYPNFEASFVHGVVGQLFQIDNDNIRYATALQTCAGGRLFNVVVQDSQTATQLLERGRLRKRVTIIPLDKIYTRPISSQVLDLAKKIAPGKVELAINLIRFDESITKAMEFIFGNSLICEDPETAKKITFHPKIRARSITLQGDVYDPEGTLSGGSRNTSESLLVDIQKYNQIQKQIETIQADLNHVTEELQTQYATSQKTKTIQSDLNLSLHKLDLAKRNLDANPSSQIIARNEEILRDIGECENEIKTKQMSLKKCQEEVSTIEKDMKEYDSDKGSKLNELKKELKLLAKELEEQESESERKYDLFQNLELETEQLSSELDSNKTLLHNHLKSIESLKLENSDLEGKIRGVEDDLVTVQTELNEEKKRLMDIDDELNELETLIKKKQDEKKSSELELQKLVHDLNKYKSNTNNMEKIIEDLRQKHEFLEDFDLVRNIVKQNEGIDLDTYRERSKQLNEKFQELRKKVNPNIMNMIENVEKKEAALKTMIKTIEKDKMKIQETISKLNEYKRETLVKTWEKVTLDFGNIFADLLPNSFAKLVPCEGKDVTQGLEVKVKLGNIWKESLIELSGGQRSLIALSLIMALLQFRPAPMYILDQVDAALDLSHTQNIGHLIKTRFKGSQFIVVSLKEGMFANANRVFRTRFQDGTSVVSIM
condensin holo complex Smc2-Smc4-Brn1-Ycs4-Ycg1, Walker B EQ mutant, sequence (Q12267 whole entry E1352Q, chain 2 of 2): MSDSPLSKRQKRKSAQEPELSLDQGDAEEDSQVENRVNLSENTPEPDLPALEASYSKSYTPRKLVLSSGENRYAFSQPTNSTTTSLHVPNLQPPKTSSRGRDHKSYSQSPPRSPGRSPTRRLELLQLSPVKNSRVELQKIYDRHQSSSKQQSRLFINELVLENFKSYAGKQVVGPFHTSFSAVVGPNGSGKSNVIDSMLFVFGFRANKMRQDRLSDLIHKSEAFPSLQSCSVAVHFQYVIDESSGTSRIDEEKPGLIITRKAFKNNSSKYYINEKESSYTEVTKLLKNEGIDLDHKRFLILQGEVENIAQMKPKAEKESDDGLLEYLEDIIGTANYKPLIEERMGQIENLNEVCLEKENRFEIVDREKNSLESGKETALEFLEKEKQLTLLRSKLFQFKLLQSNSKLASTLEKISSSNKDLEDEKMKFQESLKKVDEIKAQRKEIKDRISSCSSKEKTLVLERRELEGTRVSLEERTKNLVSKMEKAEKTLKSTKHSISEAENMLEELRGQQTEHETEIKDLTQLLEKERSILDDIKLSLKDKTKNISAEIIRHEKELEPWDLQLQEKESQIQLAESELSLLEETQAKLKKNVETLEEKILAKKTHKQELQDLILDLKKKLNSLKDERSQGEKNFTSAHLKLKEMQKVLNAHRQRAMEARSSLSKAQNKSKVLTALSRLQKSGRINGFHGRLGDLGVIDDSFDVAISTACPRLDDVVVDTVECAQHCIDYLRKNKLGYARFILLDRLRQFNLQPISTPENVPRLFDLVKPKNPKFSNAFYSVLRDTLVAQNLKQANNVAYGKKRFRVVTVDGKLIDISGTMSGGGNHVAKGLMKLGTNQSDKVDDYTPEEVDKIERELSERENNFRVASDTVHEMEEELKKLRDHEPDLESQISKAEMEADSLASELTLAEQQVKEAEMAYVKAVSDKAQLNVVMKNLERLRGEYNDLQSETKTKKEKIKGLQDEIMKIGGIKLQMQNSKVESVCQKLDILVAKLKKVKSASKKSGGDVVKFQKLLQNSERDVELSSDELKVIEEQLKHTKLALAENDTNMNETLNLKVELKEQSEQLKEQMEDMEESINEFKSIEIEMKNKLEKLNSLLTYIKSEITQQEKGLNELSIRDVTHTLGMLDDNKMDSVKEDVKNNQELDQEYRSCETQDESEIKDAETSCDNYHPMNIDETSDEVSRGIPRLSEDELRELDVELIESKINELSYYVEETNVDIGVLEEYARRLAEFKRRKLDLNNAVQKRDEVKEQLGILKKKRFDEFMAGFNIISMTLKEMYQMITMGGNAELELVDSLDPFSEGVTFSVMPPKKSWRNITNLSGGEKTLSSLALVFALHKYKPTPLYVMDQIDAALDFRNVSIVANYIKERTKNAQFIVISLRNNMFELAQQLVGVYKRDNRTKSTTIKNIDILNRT

- binding result [1]: binds
- binding result [2]: binds
B1: Brn1-His12-HA3, kleisin subunit of S. cerevisiae condensin (natural protein)
chain: MTTQLRYENNDDDERVEYNLFTNRSTMMANFEEWIKMATDNKINSRNSWNFALIDYFYDLDVLKDGENNINFQKASATLDGCIKIYSSRVDSVTTETGKLLSGLAQRKTNGASNGDDSNGGNGEGLGGDSDEANIEIDPLTGMPISNDPDVNNTRRRVYNRVLETTLVEFETIKMKELDQELIIDPLFKKALVDFDEGGAKSLLLNTLNIDNTARVIFDASIKDTQNVGQGKLQRKEEELIERDSLVDDENEPSQSLISTRNDSTVNDSVISAPSMEDEILSLGMDFIKFDQIAVCEISGSIEQLRNVVEDINQAKDFIENVNNRFDNFLTEEELQAAVPDNAEDDSDGFDMGMQQELCYPDENHDNTSHDEQDDDNVNSTTGSIFEKDLMAYFDENLNRNWRGREHWKVRNFKKANLVNKESDLLEETRTTIGDTTDKNTTDDKSMDTKKKHKQKKVLEIDFFKTDDSFEDKVFASKGRTKIDMPIKNRKNDTHYLLPDDFHFSTDRITRLFIKPGQKMSLFSHRKHTRGDVSSGLFEKSTVSANHSNNDIPTIADEHFWADNYERKEQEEKEKEQSKEVGDVVGGALDNPFEDDMDGVDFNQAFEGTDDNEEASVKLDLQDDEDHKFPIRENKVTYSRVSKKVDVRRLKKNVWRSINNLIQEHDSRKNREQSSNDSETHTEDESTKELKFSDIIQGISKMYSDDTLKDISTSFCFICLLHLANEHGLQITHTENYNDLIVNYEDLATTQAAS

B2: 50-bp dsDNA (cryo-EM) (dsDNA)
DNA 1: GTTGACAGTGTCGCAACCTGCACAGGCAAGCTGCTGAGTCTGGTGTAGAC
DNA 2: GTCTACACCAGACTCAGCAGCTTGCCTGTGCAGGTTGCGACACTGTCAAC
- binding result [3]: binds
